Our source for the response (Fnorm [1/1000]), affinity relative to BARD1^ARD-BRCTs, fold and fold affinity relative to BARD1 ARD-BRCTs (fold affinity vs BARD1 ARD-BRCTs) values is PMC10639053.

One data set concerns the target 6xHis-MBP–BARD1^425–777 (UniProt Q99728). Description: MST. The following applies: read at the highest titrant concentration (4000 nM 6xHis-MBP–BARD1ARD-BRCTs); 20 nM 5′ FAM-labelled nucleosomes; amplitude-normalised; mean of three …; parent: est. 10; read off a plot.
In data set [1] the target is human Flag-BRCA1^ΔExon11:6xHis-FL BARD1 complex, P38398-5;Q99728. Description: MST. As to conditions: read at the highest titrant concentration (2000 nM Flag-BRCA1ΔExon11:6xHis–BARD1); 20 nM 5′ FAM-labelled nucleosomes; amplitude-normalised; mean of three …; parent: est. 14; read off a plot.
Data set [2] deals with unmodified mono-nucleosome (human) (UniProt P0C0S8). Nature of the data set: MST; 5' FAM-labelled nucleosomes (20 nM) with a dilution series of protein (0.122-4000 nM or 0.122-2000 nM), 50 mM HEPES pH 7.5, 150 mM NaCl, 0.1 mg/ml BSA, 10% glycerol, 0.02% NP40, 1 mM DTT, room temperature 30 min; one-site total binding fit.
The subject of data set [3] is BRCA1 deltaExon11;BARD1 full length (human;human). Nature of the data set: MST. The following applies: Kd in Table S2, not in material, EMSA: 50 mM Tris pH 7.5, 150 mM NaCl, 0.02% NP40, 0.1 mg/ml BSA, 10% glycerol, 1 mM DTT, 8% sucrose, on ice 1 h, MST: 50 mM HEPES pH 7.5, 150 mM NaCl. A general note: A gel shift assay detects complexes by their altered migration in electrophoresis.

On to “unmodified mono-nucleosome (from UniProt P0C0S8;P33778;P68431;P62805) H2A:E61A; H2A:E91A; H2A:E92A; H2B:E105A”, for which the results for the response (Fnorm [1/1000]) (with 6xHis-MBP–BARD1^425–777; in data set [1]) were 1.5 and 5.7, respectively. In data set [2], “human Flag-BRCA1^ΔExon11:6xHis-FL BARD1 complex (from UniProt P38398-5 1-721; Q99728 1-777)” had an affinity relative to BARD1^ARD-BRCTs, fold of 2 fold.

unmodified mono-nucleosome had a fold affinity relative to BARD1 ARD-BRCTs (fold affinity vs BARD1 ARD-BRCTs) in data set [3] of 2.
